Assay [1] concerns the target T1, GST-RhoAQ63L (UniProt P61586 1-193, Q63L).
T1 construct: GTP-locked mutant; source: E. coli BL21, purified on glutathione-coated plates; not shown: GST, N-terminal, kept
Put plainly: ELISA + SPR; competition ELISA on a RhoAQ63L coated plate (scFvC1-N1N2 0.4 μM competed by increasing GST-RBD); KD of GST-RBD also determined by SPR on GST-RhoAQ63L. A general note: ELISA stands for enzyme-linked immunosorbent assay.

The target in assay [2] is T2, GST-Rac1 (Homo sapiens (assumed), UniProt P63000). Put plainly: ELISA; GST proteins loaded with 200 μM GTPγS for 30 min and purified on glutathione ELISA plates; 10^10 clones of C1 phages in each well; anti-M13-HRP, TMB. Particulars: one partner purified.
Assay [3] deals with T3, GST-Cdc42 (Homo sapiens (assumed), UniProt P60953).
T3 construct: Cdc42, from a pGEX plasmid provided by Dr. A. Blangy; Loaded with GDP, GTP or GTPγS as told in each assay; also called GTP-Cdc42; source: E. coli BL21, purified on glutathione-coated plates
The assay is described as above. The note with it: one partner purified.

Assay [4] concerns the target T4, GST-RhoC (wild type) (Homo sapiens (assumed), UniProt P08134).
T4 construct: Loaded with GDP or GTPγS as told in each assay; source: E. coli BL21, purified on glutathione-coated plates; not shown: GST, N-terminal, kept
The description is as above. The note with it: one partner purified.

Assay [5] has as its target T5, GST-RhoB (wild type) (Homo sapiens (assumed), UniProt P62745).
T5 construct: Loaded with GDP, GTP or GTPγS as told in each assay; The immunoprecipitation speaks only of recombinant RhoB without naming the GST; also called recombinant RhoB; source: E. coli BL21, purified on glutathione-coated plates; crude bacterial lysate (immunoprecipitation); not shown: GST, N-terminal, kept
The assay is described as above. The note with it: one partner purified.

The target in assay [6] is T2, GST-Rac1. In words: ELISA; competition ELISA on a RhoAQ63L coated plate: scFvC1-N1N2 (0.4 μM) competed by increasing concentrations of GST-RBD, GDP bound RhoA, GTP bound Cdc42, GTP bound Rac1.
Assay [7] concerns the target T3, GST-Cdc42. The assay is described as above.
For assay [8], the target named is T5, GST-RhoB (wild type). Put plainly: pull-down; scFv C1-N1N2 from crude bacterial extract fixed on Ni-NTA beads; crude bacterial lysate with recombinant RhoA or RhoB loaded with 0.2 mM GTPγS (PBS, 10 mM EDTA, 30 min, 30°C); 45 min at 4°C; blot with anti-RhoA or anti-RhoB; called immunoprecipitation. Particulars: one partner purified.

Bounds are passed on as bounds.

One may read the Kd as the free concentration of one partner at which half of the binding sites on the other are occupied at equilibrium, for simple one-to-one binding.

T3 sequence (P60953 whole entry): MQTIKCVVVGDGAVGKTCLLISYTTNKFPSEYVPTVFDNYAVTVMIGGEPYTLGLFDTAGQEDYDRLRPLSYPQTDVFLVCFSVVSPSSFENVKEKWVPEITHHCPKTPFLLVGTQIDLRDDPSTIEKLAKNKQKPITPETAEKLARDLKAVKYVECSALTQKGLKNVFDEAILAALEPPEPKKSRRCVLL
T5 sequence (P62745 whole entry): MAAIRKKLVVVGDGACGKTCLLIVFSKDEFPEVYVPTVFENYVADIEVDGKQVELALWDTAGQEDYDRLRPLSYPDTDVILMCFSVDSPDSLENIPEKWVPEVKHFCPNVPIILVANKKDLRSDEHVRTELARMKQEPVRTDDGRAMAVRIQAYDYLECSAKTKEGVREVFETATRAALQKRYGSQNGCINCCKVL
T1 sequence (P61586 whole entry Q63L): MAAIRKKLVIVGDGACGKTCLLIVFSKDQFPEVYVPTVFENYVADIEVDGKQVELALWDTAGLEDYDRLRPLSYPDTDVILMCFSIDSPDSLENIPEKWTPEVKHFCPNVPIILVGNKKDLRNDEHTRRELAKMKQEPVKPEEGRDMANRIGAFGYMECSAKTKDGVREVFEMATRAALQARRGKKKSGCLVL
T4 sequence (P08134 whole entry): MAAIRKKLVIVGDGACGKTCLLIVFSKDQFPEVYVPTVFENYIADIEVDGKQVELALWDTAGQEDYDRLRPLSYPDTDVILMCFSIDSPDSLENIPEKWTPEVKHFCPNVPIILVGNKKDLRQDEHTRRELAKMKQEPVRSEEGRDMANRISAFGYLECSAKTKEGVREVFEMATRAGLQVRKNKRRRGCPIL

B1: GST-RBD (Rho binding domain of Rhotekin fused to GST) (domain or fragment)
chain: ILEDLNMLYIRQMALSLEDTELQRKLDHEIRMRDGACKLLAACSQREQALEATKSLLVCNSRILSYMGELQRRKEAQVLEKTG
Regarding B1, the dissociation constant Kd in assay [1] is 0.2 ± 0.2 µM.

B2: C1 phage (scFv C1-pIII fusion protein displayed on phage) (scFv, V domains shown)
VH: not shown
VL: SSELTQDPAVSVALGQTVRITCQGDSLRSYYASWYQQKPGQAPVLVIYGKNNRPSGIPDRFSGSSSGNTASLTITGAQAEDEADYYCNSRDSSGNHAYVFGGGTKLTVL
notes: VH of scFv C1 (human synthetic, Griffin.1 library); linker between VH and VL of the Griffin.1 library vector pHEN2; VL of scFv C1 (human synthetic, Griffin.1 library); source: monoclonal phage from E. coli supernatant (Griffin.1 library, phagemid pHEN2); not shown: 6xHis, C-terminal, kept; myc, C-terminal, kept
In the case of B2, the binding result in assay [2] is recorded as “no binding (tested: 10^10 clones of C1 phages)”; in assay [3], “no binding (tested: 10^10 clones of C1 phages)”; in assay [4] it was “binds”; in assay [5] it was “binds”.

B3: scFv C1-N1N2 (scFv, V domains shown)
VH: not shown
VL: SSELTQDPAVSVALGQTVRITCQGDSLRSYYASWYQQKPGQAPVLVIYGKNNRPSGIPDRFSGSSSGNTASLTITGAQAEDEADYYCNSRDSSGNHAYVFGGGTKLTVL
notes: VH of scFv C1, as in m1; linker between VH and VL of the vector pHEN2, as in m1; VL of scFv C1, as in m1; N-terminal portions N1 and N2 of the phage coat protein pIII of M13 (vector pHEN2); the C-terminal portion of pIII removed; The amber codon between the tags and gene III was mutated so that translation runs into pIII; an EcoRI site was put in after N2; Predicted mass 60 kDa; Smaller proteins …
B3: the Kd in assay [6] and in assay [7] was over 50 µM each time. Moreover, the binding result in assay [6] is recorded as “no binding (tested: > 50 μM)”; in assay [7], “no binding (tested: > 50 μM)”; in assay [8], “binds”.
